Values of other authors in publication PMC8965884, “Synthesis and Characterization of Phenylboronic Acid-Modified Insulin With Glucose-Dependent Solubility” (Frontiers in Chemistry, 2022).

Source text: Insulin glargine, marketed as Lantus®, is a long-acting insulin analog with a 24-h dosing regimen. The additional 2 arginine residues on the C-terminus of the B chain increases its isoelectric point (pI) 6.7, which lowers its solubility at physiological pH and leads to precipitation at the subcutaneous injection site ([Kohn et al., 2007]). Glargine is then released slowly from the precipitate into the bloodstream to establish the long-acting property.

Row | pKa (non-substituted PBA, ref Yan et al., 2004) | Compound | isoelectric point (pI) (ref Kohn et al., 2007)
1 |  | Insulin glargine | 6.7
2 | 8.8 | OB(O)c1ccccc1 [PBA, phenylboronic acids] | 
